Data on two molecules can be found in patent publication US20160195541A1.

Where “and” joins values, the source holds several entries; their conditions need not be identical. Equal entries are not always repeated.

In assay [1] the target is aggregated human IgG (aggregated Beriglobin, aggregated fraction isolated by size exclusion chromatography) (human). The assay can be described thus: FACS competition on Raji cells, mean of 25 experiments.
Assay [2] shares this target. The assay can be described thus: apparent KD, FACS competition on Raji cells, mean of tests #18-25.
Assay [3] shares this target. The assay can be described thus: apparent KD, FACS competition on Raji cells, mean of 25 experiments.
Assay [4] shares this target. The assay can be described thus: apparent KA, Langmuir fit of FACS competition on Raji cells (FACS007).
Assay [5] has the same target. Put plainly: apparent KD, Langmuir fit of FACS competition on Raji cells (FACS007).
Assay [6] has the same target. The assay can be described thus: apparent KA, Langmuir fit of FACS competition on Raji cells (FACS021).
The target is the same in assay [7]. Put plainly: apparent KD, Langmuir fit of FACS competition on Raji cells (FACS021).
Assay [8] shares this target. Put plainly: apparent KD, FACS competition on Raji cells, mean of tests #1-17 without #4 and #6.
Assay [9] shares this target. The assay can be described thus: apparent KD, FACS competition on Raji cells (Example 1), as told in the description.
Assay [10] has the same target. Put plainly: FACS competition on Raji cells (FACS021), inhibition of aggregated IgG binding to cell FcγRIIB at 0.0625 µg/µL.
For assay [11] the target is unchanged. Put plainly: FACS competition on Raji cells (FACS021), inhibition of aggregated IgG binding to cell FcγRIIB at 0.03125 µg/µL.
For assay [12] the target is unchanged. Put plainly: FACS competition on Raji cells (FACS007), inhibition of aggregated IgG binding to cell FcγRIIB at 0.5 µg/µL SM101.
Assay [13] has the same target. Put plainly: FACS competition on Raji cells (FACS007), inhibition of aggregated IgG binding to cell FcγRIIB at 0.25 µg/µL SM101.
The target is the same in assay [14]. The assay can be described thus: FACS competition on Raji cells (FACS007), inhibition of aggregated IgG binding to cell FcγRIIB at 0.125 µg/µL SM101.
The target is the same in assay [15]. Put plainly: FACS competition on Raji cells (FACS007), inhibition of aggregated IgG binding to cell FcγRIIB at 0.0078 µg/µL SM101.
Assay [16] shares this target. Put plainly: FACS competition on Raji cells (FACS007), inhibition of aggregated IgG binding to cell FcγRIIB at 0.0156 µg/µL SM101.
Assay [17] shares this target. The assay can be described thus: FACS competition on Raji cells (FACS007), inhibition of aggregated IgG binding to cell FcγRIIB at 0.0625 µg/µL SM101.
Assay [18] shares this target. The assay can be described thus: FACS competition on Raji cells (FACS007), inhibition of aggregated IgG binding to cell FcγRIIB at 0.03125 µg/µL SM101.
The target is the same in assay [19]. The assay can be described thus: sigmoid logistic fit of FACS competition on Raji cells (FACS021): inhibition of aggregated IgG binding to cell FcγRIIB.
Assay [20] shares this target. The assay can be described thus: sigmoid logistic fit of FACS competition on Raji cells (FACS007): inhibition of aggregated IgG binding to cell FcγRIIB.
Assay [21] shares this target. Put plainly: FACS competition control on Raji cells: constant aggregated Beriglobin, CSA in place of SM101; bound aggregated IgG detected with anti-human IgG(H+L)-PE; interaction tested for blocking: aggregated IgG with membrane-bound FcγRIIB.
[22] abbreviates: SM101 investigational medicinal product.

On to “SM101 (soluble human FcγRIIB, sFcγRIIB) (from UniProt P31994 46-217) (receptor)”, for which the IC50 (usually the concentration that gives 50% inhibition) is 10.6 µg/mL in assay [1]; 12.9 µg/mL and 16.2 µg/mL in [19]; 17.7 µg/mL in [20]. The Kd was 260 nM in assay [2]; 530 nM in assay [3]; 990 nM in [5]; 740 nM and 900 nM in [7]; 680 nM in assay [8]; 980 nM in [9]. Also, the Ka in [4] was 1.02e+06 M⁻¹; in assay [6], 1.35e+06 M⁻¹ and 1.11e+06 M⁻¹. Besides, the norm. Signal (% inhibition) in [10] (setting [22]) came out at 89.6%; in assay [10] (SM101 reference standard), 87.3%; in assay [11] (setting [22]), 75.7%; in assay [11] (SM101 reference standard), 75.9%; in [12], 97.3%; in assay [13], 98.4%. Moreover, the norm. Signal (% inhibition) in assay [14] came out at 94.9%; in assay [15] it was 23.2%; in assay [16], 43%; in assay [17], 91.2%; in assay [18], 70.5%.

B1: chicken serum albumin (protein, UniProt P19121 24-615, looked up)
Albumin: FARDAEHKSEIAHRYNDLKEETFKAVAMITFAQYLQRCSYEGLSKLVKDVVDLAQKCVANEDAPECSKPLPSIILDEICQVEKLRDSYGAMADCCSKADPERNECFLSFKVSQPDFVQPYQRPASDVICQEYQDNRVSFLGHFIYSVARRHPFLYAPAILSFAVDFEHALQSCCKESDVGACLDTKEIVMREKAKGVSVKQQYFCGILKQFGDRVFQARQLIYLSQKYPKAPFSEVSKFVHDSIGVHKECCEGDMVECMDDMARMMSNLCSQQDVFSGKIKDCCEKPIVERSQCIMEAEFDEKPADLPSLVEKYIEDKEVCKSFEAGHDAFMAEFVYEYSRRHPEFSIQLIMRIAKGYESLLEKCCKTDNPAECYANAQEQLNQHIKETQDVVKTNCDLLHDHGEADFLKSILIRYTKKMPQVPTDLLLETGKKMTTIGTKCCQLGEDRRMACSEGYLSIVIHDTCRKQETTPINDNVSQCCSQLYANRRPCFTAMGVDTKYVPPPFNPDMFSFDEKLCSAPAEEREVGQMKLLINLIKRKPQMTEEQIKTIADGFTAMVDKCCKQSDINTCFGEEGANLIVQSRATLGIGA
As for B1, in assay [21], the Median PE-A of aggregated IgG bound to Raji cells at 0.0156 µg/µL CSA turned out to be 3770, the Median PE-A of aggregated IgG bound to Raji cells at 0.03125 µg/µL CSA was determined as 3700, the Median PE-A of aggregated IgG bound to Raji cells at 0.0625 µg/µL CSA was 3830 and the Median PE-A of aggregated IgG bound to Raji cells at 0.125 µg/µL CSA was found to be 4140. Further, in assay [21], the Median PE-A of aggregated IgG bound to Raji cells at 0.25 µg/µL CSA was 4570, the Median PE-A of aggregated IgG bound to Raji cells at 0.5 µg/µL CSA was found to be 4940 and the Median PE-A of aggregated IgG bound to Raji cells at the CSA concentration labelled 0'078 (0.0078 µg/µL by the series in legend paragraph 80) was 4180.
